Data from paper PMC11293645, “The two-component system TtrRS boosts Vibrio parahaemolyticus colonization by exploiting sulfur compounds in host gut” (PLOS Pathogens, 2024).

The compounds below were run against T1, TtrBCA (Vibrio parahaemolyticus, UniProt Q87N61) (assay: HPLC of cultures, wild type vs deletion and complemented strains). Settings: M9 medium, 10 mM sodium tetrathionate, micro-aerobic, 37 °C; whole-cell cultures; reduction to thiosulfate.
T1 construct: gene VP2014; native complex in V. parahaemolyticus cells; wild type, ttrA deletion and pBAD24-complemented strains; with Tetrathionate reductase subunit B; Tetrathionate reductase subunit C
T1 sequence (Q87N62 entry or part of it): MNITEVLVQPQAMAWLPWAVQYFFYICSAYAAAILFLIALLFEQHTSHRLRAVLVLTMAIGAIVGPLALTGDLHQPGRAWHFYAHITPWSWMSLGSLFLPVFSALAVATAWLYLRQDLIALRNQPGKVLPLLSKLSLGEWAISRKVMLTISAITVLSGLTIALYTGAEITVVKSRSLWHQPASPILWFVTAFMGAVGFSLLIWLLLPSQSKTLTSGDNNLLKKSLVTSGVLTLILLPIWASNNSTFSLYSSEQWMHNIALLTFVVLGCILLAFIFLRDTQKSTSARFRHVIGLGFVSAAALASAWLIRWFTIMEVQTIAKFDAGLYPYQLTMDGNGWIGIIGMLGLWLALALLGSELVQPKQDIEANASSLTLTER
T1 sequence (Q87N63 entry or part of it, further chain): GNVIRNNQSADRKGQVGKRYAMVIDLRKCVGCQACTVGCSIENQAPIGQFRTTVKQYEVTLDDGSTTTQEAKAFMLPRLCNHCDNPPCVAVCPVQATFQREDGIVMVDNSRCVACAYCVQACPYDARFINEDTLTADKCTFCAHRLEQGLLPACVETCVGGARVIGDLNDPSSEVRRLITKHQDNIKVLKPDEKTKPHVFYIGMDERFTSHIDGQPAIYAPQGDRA
T1 sequence (Q87N61 entry or part of it): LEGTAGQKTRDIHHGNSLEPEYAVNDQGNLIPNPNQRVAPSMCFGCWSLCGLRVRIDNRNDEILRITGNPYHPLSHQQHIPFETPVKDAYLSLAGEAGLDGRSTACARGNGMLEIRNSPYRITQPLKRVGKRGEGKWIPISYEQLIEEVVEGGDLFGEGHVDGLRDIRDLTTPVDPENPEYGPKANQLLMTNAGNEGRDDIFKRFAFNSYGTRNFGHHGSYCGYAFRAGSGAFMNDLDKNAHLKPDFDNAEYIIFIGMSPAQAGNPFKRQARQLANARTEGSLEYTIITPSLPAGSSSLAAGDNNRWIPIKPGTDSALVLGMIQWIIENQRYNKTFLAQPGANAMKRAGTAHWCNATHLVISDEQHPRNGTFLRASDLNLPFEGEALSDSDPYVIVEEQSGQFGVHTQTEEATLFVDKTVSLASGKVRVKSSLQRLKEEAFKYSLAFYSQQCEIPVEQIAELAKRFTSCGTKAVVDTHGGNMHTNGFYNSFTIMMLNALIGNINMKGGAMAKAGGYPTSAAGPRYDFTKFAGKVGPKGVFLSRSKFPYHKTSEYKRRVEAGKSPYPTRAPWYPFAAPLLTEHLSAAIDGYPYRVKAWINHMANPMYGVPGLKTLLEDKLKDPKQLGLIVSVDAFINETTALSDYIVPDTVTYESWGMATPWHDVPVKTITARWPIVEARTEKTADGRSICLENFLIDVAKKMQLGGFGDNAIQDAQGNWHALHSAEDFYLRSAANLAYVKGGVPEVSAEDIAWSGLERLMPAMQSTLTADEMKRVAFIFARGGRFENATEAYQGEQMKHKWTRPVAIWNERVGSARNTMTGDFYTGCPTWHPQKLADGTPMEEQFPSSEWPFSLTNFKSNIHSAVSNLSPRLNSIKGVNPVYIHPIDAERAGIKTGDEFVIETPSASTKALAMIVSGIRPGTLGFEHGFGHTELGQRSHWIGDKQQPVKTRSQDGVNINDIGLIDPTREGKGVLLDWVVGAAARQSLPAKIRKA
Type: cell-based
In the case of `O=S(=O)(O)SSS(=O)(=O)O` [tetrathionate], the “HPLC of cultures, wild type vs deletion and complemented strains” value is reported as “confirming that ttrBCA is essential for tetrathionate reduction”.

What follows are compounds tested against T2, TtrR (09830, response regulator) (UniProt Q87N66) (assay: EMSA). Settings: not given.
T2 sequence: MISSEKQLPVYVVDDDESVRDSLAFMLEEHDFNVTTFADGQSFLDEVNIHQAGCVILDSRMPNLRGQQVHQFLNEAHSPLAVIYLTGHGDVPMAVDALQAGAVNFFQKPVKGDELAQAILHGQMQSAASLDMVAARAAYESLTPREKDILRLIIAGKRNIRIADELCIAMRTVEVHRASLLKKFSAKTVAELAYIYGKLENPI
In the case of “CGCCCTGAGCTAAAGATGCAAAGACAACCAAGCACAGAATCCAAAACTGAAGCAACCGTGGCGTTTTGTTCATGATGAGTCGAATCGTTCCTTCGAAAATAATGAAGCAAGAATAACAGCTACCTTCCGTAAACCACATTTGTTTTAGATCAACTTTGATCTGGGTATGTGGAAATCCACTATATCGACGTCGCAGCGCATTTCTCACAATGGAATCAGTCAGTTCAAATTCAACTAACAGCAGGTGAGTT (double strand) [PttrB (ttrBCA promoter)]”, the binding is reported as “binds”. “GCTGACTCACTTTAATTGTTATTAATATCTCCAAGTGTCTACTGTGATAGTGACTTGGGTGCTGTATTGTCGGCTTTGTCAATAACTAAAGGTATTATATTTAGAGGATGTGAAGAGCTGCTAAATGGCAGCTCTTCAGGTTTGGTTGTCTACTAAGCTTTGCGGATTTTGGCTGGTAATGATTGGCGAGCAGCGGCTCCTACCACCCAATCTAACAACACGCCTTTCCCTTCTCGG (double strand) [PtsdB-Δbox]” was tested, and the binding was “no binding”. For “CGCCCTGAGCTAAAGATGCAAAGACAACCAAGCACAGAATCCAAAACTGAAGCAACCGTGGCGTTTTGTTCATGATGAGTCGAATCGTTCCTTCGAAAATAATGAAGCAAGAATAACAGCTACCTTCCGTAAACCACATTTGTTTTAGATCAACTTTGATCTGGGTATTATATCGACGTCGCAGCGCATTTCTCACAATGGAATCAGTCAGTTCAAATTCAACTAACAGCAGGTGAGTT (double strand) [PttrB-Δbox]”, the binding was “no binding”. “CAATACCTGCAATGGGGACCAACGCGGCACCCGCTGTAATGGCGCTAAGAAAGCGACGTTTGGTGGAATCCATAACTCACCTGCTGTTAGTTGAATTTGAACTGACTGATTCCATTGTGAGAAATGCGCTGCGACGTCGATATAGTGGATTTCCACATACCCAGATCAAAGTTGATCTAAAACAAATGTGGTTTACGGAAGGTAGCTGTTATTCTTGCTTCATTATTTTCGAAGGAACGATTCGACTCATC (double strand) [PttrS (ttrRS promoter)]” was tested, and the binding was “binds”. With “GCTGACTCACTTTAATTGTTATTAATATCTCCAAGTGTCTACTGTGATAGTGACTTGGGTGCTGTATTGTCGGCTTTGTCAATAACTAAAGGTATTGTGGATTTCCACATATTTAGAGGATGTGAAGAGCTGCTAAATGGCAGCTCTTCAGGTTTGGTTGTCTACTAAGCTTTGCGGATTTTGGCTGGTAATGATTGGCGAGCAGCGGCTCCTACCACCCAATCTAACAACACGCCTTTCCCTTCTCGG (double strand) [P09855 (PtsdB, tsdBA promoter)]” the binding was “binds”.
